# In patent US20240279341A1 (Alector, published 2024):
# T1: human MerTK overexpressed on CHO cells (human, UniProt Q12866 21-999)
# T1 construct: also called CHO-huMerTK OE; CHO-human MerTK OE cells
# T1 sequence: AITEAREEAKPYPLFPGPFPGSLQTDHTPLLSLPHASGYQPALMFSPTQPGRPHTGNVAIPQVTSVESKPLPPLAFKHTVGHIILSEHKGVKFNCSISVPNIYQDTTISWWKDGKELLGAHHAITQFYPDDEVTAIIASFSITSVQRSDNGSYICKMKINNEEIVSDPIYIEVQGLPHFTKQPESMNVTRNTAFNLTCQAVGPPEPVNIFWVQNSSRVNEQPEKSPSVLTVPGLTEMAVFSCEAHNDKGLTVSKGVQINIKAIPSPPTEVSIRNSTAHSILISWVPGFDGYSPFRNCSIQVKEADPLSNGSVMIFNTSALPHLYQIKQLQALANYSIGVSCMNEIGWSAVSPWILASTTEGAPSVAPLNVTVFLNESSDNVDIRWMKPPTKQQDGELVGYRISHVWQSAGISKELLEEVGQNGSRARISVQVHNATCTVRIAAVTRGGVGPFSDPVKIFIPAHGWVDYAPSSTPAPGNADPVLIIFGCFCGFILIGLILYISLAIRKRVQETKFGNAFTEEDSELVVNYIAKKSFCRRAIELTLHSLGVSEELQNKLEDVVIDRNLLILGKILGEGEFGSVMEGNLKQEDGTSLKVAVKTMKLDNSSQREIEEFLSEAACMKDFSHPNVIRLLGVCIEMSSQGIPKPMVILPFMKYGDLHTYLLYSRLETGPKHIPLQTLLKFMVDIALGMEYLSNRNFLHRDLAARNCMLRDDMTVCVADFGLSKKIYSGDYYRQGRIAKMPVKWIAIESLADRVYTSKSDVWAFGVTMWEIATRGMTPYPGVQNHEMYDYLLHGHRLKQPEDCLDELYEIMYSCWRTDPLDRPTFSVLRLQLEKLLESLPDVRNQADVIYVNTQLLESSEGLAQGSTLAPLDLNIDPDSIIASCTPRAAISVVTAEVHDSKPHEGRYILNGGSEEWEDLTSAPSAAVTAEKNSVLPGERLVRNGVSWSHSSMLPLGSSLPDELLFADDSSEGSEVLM
# T2: human MerTK on M2c-differentiated human macrophages (human, UniProt Q12866 21-999)
# T2 construct: Endogenous MerTK of primary human macrophages; also called M2c-huMacrophages
# T2 sequence: T1 sequence
# B1: bivalent anti-MerTK antibody MTK-33.11 (full IgG) (antibody, V domains shown)
# VH: QVQLVQSGAEVKKPGASVKVSCKASGYTFTSYWMHWVRQAPGQGLEWIGVIDPSDNYINYNQKFQGRVTMTRDTSTSTVYMELSSLRSEDTAVYYCAREAWTRGYFDYWGQGTLVTVSS
# VL: DIQMTQSPSSLSASVGDRVTITCQASRSVRNTVAWYQQKPGKAPKLLIYYASNRYTGVPSRFSGSGSGTDFTFTISSLQPEDIATYYCQQDYRSPFTFGQGTKLEIKR
# How the values were obtained:
# [1] = target: T1, human MerTK overexpressed on CHO cells; experiment: flow cytometry, Dylight650-conjugated antibody on CHO-huMerTK OE cells, MFI
# Procedure: To determine whether bispecific anti-MerTK:anti-PDL1 antibodies of the present disclosure bind to different cell types, the following experiments were performed. Cells used in these studies included CHO cells overexpressing human MerTK (CHO-human MerTK OE cells), CHO cells overexpressing human PDL1 (CHO-human PDL1 OE cells), and M2c-differentiated human macrophages.
# (§1) Human macrophages were differentiated from human monocytes for 7 days in the presence of human M-CSF, resulting in M2c-differentiated human macrophages. After 7 days, the differentiated human macrophages were harvested (by scraping), resuspended in PBS, and plated on 96-well plates for use. CHO cells overexpressing human MerTK (CHO-huMerTK OE), CHO cells overexpressing human PDL1 (CHO-huPDL1 OE), and M2c-differentiated human macrophages were stained with Dylight650-conjugated bispecific anti-MerTK:anti-PDL1 antibodies, or bivalent anti-MerTK antibodies for 30 min on ice. A range of antibody concentrations were used in these studies to obtain binding curves. All antibodies tested in these studies were IgG1 having Fc regions comprising LALAPS mutations. Cells were fixed and then acquired on a BD FACS Canto II cytometer. The mean fluorescence intensity (MFI) was calculated using FlowJo software and Kd value was calculated using Prism software.
# [2] = target: T2, human MerTK on M2c-differentiated human …; experiment: flow cytometry on M2c-differentiated human macrophages
# Description: as §1
# [3] = target: T1, human MerTK overexpressed on CHO cells; experiment: flow cytometry on CHO-huMerTK OE cells
# Description: as §1
binder,measurement,setting,value
B1,EC50 (read off the curve),[1],~4 nM
same,fold higher affinity compared to its monovalent form (monovalent MTK-33.11),[2],~5 fold
same,fold higher affinity compared to its monovalent form (monovalent MTK-33.11),[3],~10 fold
